From patent US20140134202A1 (FOLIA BIOTECH, published 2014)

Biological target: the molecule itself
Assay: gel filtration (Superdex 200), self-association into disks

B1: CP.DELTA.N5 PapMV coat protein (recombinant, N-terminal 5 amino acids deleted, alanine inserted at p (other)
chain: MASTPNIAFPAITQEQMSSIKVDPTSNLLPSQEQLKSVSTLMVAAKVPAASVTTVALELVNFCYDNGSSAYTTVTGPSSIPEISLAQLASIVKASGTSLRKFCRYFAPIIWNLRTDKMAPANWEASGYKPSAKFAAFDFFDGVENPAAMQPPSGLTRSPTQEERIANATNKQVHLFQAAAQDNNFASNSAFITKGQISGSTPTIQFLPPPE
notes: also called CPΔN5; CPΔN5 PapMV VLP
binding result: binds
